From PMC516168

Target: Mc-VHA-a fused to YFP (M. crystallinum)
Assay: FRET or BRET; in vivo FRET (CFP donor, YFP acceptor, fused to C-termini) in co-transformed A. thaliana mesophyll protoplasts; excitation 458 nm; acceptor photobleaching at 514 nm; confocal microscopy

Mc-VHA-c fused to CFP (natural protein)
FRET efficiency: 0.45
